“And” between values parts separate entries of the source, which are not always exact repeats. Equal values may be shown once. Read-outs that look alike come from different tables or passages of the source. One block for each binder: values may come before it.
Legend:
[1] = molecular target: T1, FcγRIIIa-F158 (Pichia pastoris produced) (UniProt P08637 17-208, limits assumed); assay: FcγR affinity assay 'as described in Example 7', n = 3; printed as Affinity (nM) ± STDEV; footnote: values > ~5000 nM mean a poor binder
T1 construct: also called FcγRIIIA LF; FcgRIIIA LF
T1 sequence (P08637 17-208 limits assumed): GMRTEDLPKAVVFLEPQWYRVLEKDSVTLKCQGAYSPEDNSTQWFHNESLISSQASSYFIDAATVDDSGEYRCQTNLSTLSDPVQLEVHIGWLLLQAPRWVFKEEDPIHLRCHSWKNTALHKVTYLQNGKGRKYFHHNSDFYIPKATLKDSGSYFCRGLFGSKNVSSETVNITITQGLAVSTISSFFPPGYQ
Description: (§1) Fcγ receptor binding assays were carried out as described (Shields, et al. (2001) J. Biol. Chem. 276:6591-6604) with minor modifications. High protein binding 96-well plates (Corning Costar) were coated with 100 μL per well of Fcγ receptor solutions in PBS at the following concentrations: 1 μg/mL for both FcγRI (R&D Systems) and FcγRIIa (Pichia pastoris produced), 2 μg/mL for FcγRIIb (P. pastoris produced), 0.8 μg/mL for FcγRIIIa-F158, and 0.4 μg/mL for FcγRIIIa-V158 (both P. pastoris produced). All Pichia pastoris produced receptors were expressed and purified as described (Li, et al. (2006) Nature Biotechnology 24:210-215). Monomeric antibody samples added to the FcγRI plate were serially diluted in assay diluent (1×PBS, 1% BSA, and 0.05% Tween20) and 100 μL, per well was added to the plate. Antibody samples prepared for the remaining receptors require a one hour dimerization step with half molar ratio of goat anti-human IgG F(ab′)2 F(ab′)2 that is conjugated with alkaline phosphatase for detection. These dimerized F(ab′)2/antibody complexes were also serially diluted and 100 μL per well were added to the remaining receptor plates and all plates were incubated for one hour at room temperature. FcγRI bound sample antibody was detected using the same goat anti-human IgG F(ab′)2 alkaline phosphatase conjugated F(ab′)2. Sample antibody binding was quantified by measuring excitation at 340 nm and emission at 465 nm after 18 hour incubation with SuperPhos, 4-MUP Fluorescence AP Substrate Detection System (Virolabs).

FcγRIIA H [2] = molecular target: T2, FcγRIIA H (UniProt P12318 34-217, limits assumed); assay: as above
T2 construct: also called FcgRIIA H
T2 sequence (looked up): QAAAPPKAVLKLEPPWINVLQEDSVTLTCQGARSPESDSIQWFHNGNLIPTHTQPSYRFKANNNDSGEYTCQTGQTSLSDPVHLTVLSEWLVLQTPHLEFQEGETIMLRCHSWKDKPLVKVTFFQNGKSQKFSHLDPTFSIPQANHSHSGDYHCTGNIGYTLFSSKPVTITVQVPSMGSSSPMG
Description: as §1

[3] = molecular target: T3, FcγRIIIa-V158 (Pichia pastoris produced) (UniProt P08637 17-208, limits assumed); assay: as above
T3 construct: also called FcγRIIIA LV; FcgRIIIA LV
T3 sequence (P08637 17-208 F176V limits assumed): as the sequence (P08637 17-208 limits assumed) above, with F160V counted along it
Description: as §1

[4] = molecular target: T4, FcγRIIb (Pichia pastoris produced) (UniProt P31994 43-217, limits assumed); assay: FcγR affinity assay 'as described in Example 7', n = 3; printed as Affinity (nM) ± STDEV
T4 construct: also called FcgRIIB; CD32B
T4 sequence (looked up): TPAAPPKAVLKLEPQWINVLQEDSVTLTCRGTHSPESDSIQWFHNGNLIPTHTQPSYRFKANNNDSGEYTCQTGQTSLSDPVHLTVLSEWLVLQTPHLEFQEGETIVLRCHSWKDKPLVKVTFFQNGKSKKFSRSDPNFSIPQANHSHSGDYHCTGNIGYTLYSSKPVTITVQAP
Description: as §1

[5] = molecular target: T1, FcγRIIIa-F158 (Pichia pastoris produced); assay: fold change of the Table 12 affinities
Description: as §1

[6] = molecular target: T4, FcγRIIb (Pichia pastoris produced); assay: fold change of the Table 12 affinities
Description: as §1

FcγRIIA H [7] = molecular target: T2, FcγRIIA H; assay: fold change of the Table 12 affinities
Description: as §1

[8] = molecular target: T3, FcγRIIIa-V158 (Pichia pastoris produced); assay: fold change of the Table 12 affinities; Table 13 fold change computed from the Table 12 affinities
Description: as §1, with “These dimerized F(ab′)2/antibody complexes were also serially diluted and 100 μL per well were added to the remaining receptor plates and all plates were incubated for one hour at room temperature.” left out

[9] = molecular target: T1, FcγRIIIa-F158 (Pichia pastoris produced); assay: fold change of the Table 12 affinities (arrow not given); Table 13 fold change computed from the Table 12 affinities
Description: as §1, with “These dimerized F(ab′)2/antibody complexes were also serially diluted and 100 μL per well were added to the remaining receptor plates and all plates were incubated for one hour at room temperature.” left out

[10] = molecular target: T4, FcγRIIb (Pichia pastoris produced); assay: ELISA-type plate assay, FcγR coated, antibody dimerized with AP-conjugated goat anti-human IgG F(ab')2, RFU readout
Description: as §1

wild-type human PCSK9 = molecular target: T5, wild-type human PCSK9 (human, UniProt Q8NBP7 31-692, limits assumed); assay: SPR (Biacore T100), average KD of the six YGLY25267 runs
T5 construct: also called PCSK9 antigen
Description: The CM5 chip was immobilized on all flowcells with mouse anti-human IgG (Fc specific) according to the Biacore Human Antibody Capture Kit (Cat# BR-1008-39) to ˜7000RU. Anti-PCSK9 antibodies were captured on the chip to ˜500RU followed by analyte injections of wild-type human PCSK9 from 64.1 nM to 2.0 nM. Each flowcell was regenerated between each analyte injection with 3M MgCl for 40 seconds at 10 uL/min. Data was analyzed with Biacore T100 Evaluation Software using the 1:1 binding model using at least 5 point concentration range sensogram.

FcγRIIA H [11] = molecular target: T2, FcγRIIA H; assay: fold change of the Table 12 affinities (arrow not given)
Description: as §1, with “These dimerized F(ab′)2/antibody complexes were also serially diluted and 100 μL per well were added to the remaining receptor plates and all plates were incubated for one hour at room temperature.” left out

[12] = molecular target: T1, FcγRIIIa-F158 (Pichia pastoris produced); assay: FcγR affinity assay 'as described in Example 7', n = 3; printed as Affinity (nM) ± STDEV; footnote: values > ~5000 nM mean a poor binder; Table 12 affinity (nM) assay, n = 3; value outside the tested concentration range
Description: as §1, with “These dimerized F(ab′)2/antibody complexes were also serially diluted and 100 μL per well were added to the remaining receptor plates and all plates were incubated for one hour at room temperature.” left out

[13] = molecular target: T3, FcγRIIIa-V158 (Pichia pastoris produced); assay: as above
Description: as §1, with “These dimerized F(ab′)2/antibody complexes were also serially diluted and 100 μL per well were added to the remaining receptor plates and all plates were incubated for one hour at room temperature.” left out

[14] = molecular target: T4, FcγRIIb (Pichia pastoris produced); assay: ELISA-type plate assay, FcγR coated, antibody dimerized with AP-conjugated goat anti-human IgG F(ab')2, RFU readout; remark: listed apart in the source
Description: as §1

[15] = molecular target: T4, FcγRIIb (Pichia pastoris produced); assay: as above; remark: listed apart in the source
Description: as §1

[16] = molecular target: T4, FcγRIIb (Pichia pastoris produced); assay: as above; remark: listed apart in the source
Description: as §1

Kd [1]: 30.6 µM
Kd (FcγRIIA H [2]): 9.13 µM
Kd [3]: 6.4 µM
Kd [4]: 0.028 µM
fold change in affinity vs hFcDM [5]: 9 fold
fold change in affinity vs hFcDM [6]: 100 fold
fold change in affinity vs hFcDM (FcγRIIA H [7]): 1 fold
B1: human IgG1 Fc ("hFc") QM (F243A/V264A/S267E/L328F quadruple mutein Fc domain) (other)
chain: AEPKSCDKTHTCPPCPAPELLGGPSVFLAPPKPKDTLMISRTPEVTCVVADVEHEDPEVKFNWYVDGVEVHNAKTKPREEQYNSTYRVVSVLTVLHQDWLNGKEYKCKVSNKAFPAPIEKTISKAKGQPREPQVYTLPPSRDELTKNQVSLTCLVKGFYPSDIAVEWESNGQPENNYKTTPPVLDSDGSFFLYSKLTVDKSRWQQGNVFSCSVMHEALHNHYTQKSLSLSPGK
notes: Fc fragment of human IgG1 with hinge, produced in Pichia pastoris GFI6.0 host YGLY22834; also called YGLY28722; YGLY28725

fold change in affinity vs 1F11 IgG1 GS5.0 [8]: > 10000 fold
fold change in affinity vs 1F11 IgG1 GS5.0 [9]: 103 fold
EC50 (read off the curve) [10]: ~0.05 µg/mL
Kd (wild-type human PCSK9): 0.00364 µM
fold change in affinity vs 1F11 IgG1 GS5.0 (FcγRIIA H [11]): 9 fold
Kd [12]: > 5 µM
Kd [13]: > 5 µM
Kd (FcγRIIA H [2]): 8.15 µM
EC50 (read off the curve) [14]: ~0.03 µg/mL
Kd [4]: 0.029 µM
EC50 (read off the curve) [15]: ~0.04 µg/mL
EC50 (read off the curve) [16]: ~0.04 µg/mL and ~0.1 µg/mL
fold change in affinity vs 1F11 IgG1 GS5.0 [6]: 19 fold
B2: 1F11 IgG1 F243A/V264A/S267E/L328F quadruple mutein anti-PCSK9 antibody (antibody)
heavy: QVQLVQSGAEVKKPGASVKVSCKVSGYTFTDYYMNWVRQAPGQGLEWIGDINPNNGGAIYNQKFKGRATLTVDKSTSTAYMELRSLRSDDTAVYYCTSGIITEIAEDFWGQGTLVTVSSASTKGPSVFPLAPSSKSTSGGTAALGCLVKDYFPEPVTVSWNSGALTSGVHTFPAVLQSSGLYSLSSVVTVPSSSLGTQTYICNVNHKPSNTKVDKKVEPKSCDKTHTCPPCPAPELLGGPSVFLAPPKPKDTLMISRTPEVTCVVADVEHEDPEVKFNWYVDGVEVHNAKTKPREEQYNSTYRVVSVLTVLHQDWLNGKEYKCKVSNKAFPAPIEKTISKAKGQPREPQVYTLPPSRDELTKNQVSLTCLVKGFYPSDIAVEWESNGQPENNYKTTPPVLDSDGSFFLYSKLTVDKSRWQQGNVFSCSVMHEALHNHYTQKSLSLSPG
light: DIQMTQSPSSLSASVGDRVTITCKASQNVGTNVVWYQQKPGKAPKALIHSASYRYSGVPSRFSGSGSGTDFTLTISSLQPEDFATYYCQQYKTYPYTFGQGTKVEIKRTVAAPSVFIFPPSDEQLKSGTASVVCLLNNFYPREAKVQWKVDNALQSGNSQESVTEQDSKDSTYSLSSTLTLSKADYEKHKVYACEVTHQGLSSPVTKSFNRGEC
notes: Produced in Pichia pastoris GFI6.0; The strains give the same polypeptide with different N-glycan profiles; also called 1F11 QM; YGLY25265

— US20140086916A1 (Merck Sharp & Dohme, published 2014)
